Experimental data: PMC4937444

System: MukB (Escherichia coli)
Test: pull-down (MU topological loading assay)
Conditions: no ATP, 750 mM KCl wash, MU assay: low salt 25 mM KCl loading (37 °C), His-tag affinity beads, typically 7.3 pmol MukB and 100 ng DNA, SSB EMSA: HKD buffer (25 mM …)

Substance ldsDNA has a binding signal (% DNA retrieved) of 0.6.
Work on cccDNA (pUC19/pUC119) yielded a binding signal (% DNA retrieved) of 4.6.
pUC119 cssDNA was tested, and the binding signal (% DNA retrieved) was 10.6.
